Results on four molecules are retold here after patent publication US10184137B2, “Method of producing isoprene monomer” (AJINOMOTO CO., INC., priority 2014, dated 2019).

Common to all, as to assay type: biochemical
Data set [1] addresses Methanocella paludicola mevalonate kinase (mpd), wild type, SEQ ID NO:1, N-terminal His-tag (Methanocella paludicola, UniProt D1YZ39). As to the kind of experiment: Inhibition of mpd-derived mevalonate kinase by DMAPP, GPP, FPP or DPM. The procedure:
(§1) Km value was calculated by Lineweaver-Burk plot.
(§2) Since GPP and FPP solutions contain methanol, methanol which was needed to keep the same methanol level at the addition to the reaction system was added to the reaction solution, which was designated as control.
(§3) Effect of 1 mM diphosphomevalonate (DPM) on each enzyme was also studied.

The target of data set [2] is T1, Methanosarcina mazei mevalonate kinase (mma), wild type, SEQ ID NO:12, N-terminal His-tag (Methanosarcina mazei, UniProt Q8PW39).
T1 sequence (Q8PW39 1-301): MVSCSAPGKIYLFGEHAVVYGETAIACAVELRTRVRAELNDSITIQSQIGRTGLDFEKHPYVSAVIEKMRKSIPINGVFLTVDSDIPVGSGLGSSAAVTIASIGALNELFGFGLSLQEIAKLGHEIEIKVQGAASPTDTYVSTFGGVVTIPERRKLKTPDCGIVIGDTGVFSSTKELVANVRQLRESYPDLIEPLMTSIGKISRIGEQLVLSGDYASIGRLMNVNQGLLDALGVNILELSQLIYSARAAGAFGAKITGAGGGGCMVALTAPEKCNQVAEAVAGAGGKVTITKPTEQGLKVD
Nature of the data set: Inhibition of mma-derived mevalonate kinase by DMAPP, GPP, FPP or DPM. How it is done:
as §1, §2, §3

The target in data set [3] is T2, Methanosaeta concilii mevalonate kinase (mcl), wild type, SEQ ID NO:6, N-terminal His-tag (Methanothrix soehngenii, UniProt F4BZB3).
T2 sequence (F4BZB3 1-317): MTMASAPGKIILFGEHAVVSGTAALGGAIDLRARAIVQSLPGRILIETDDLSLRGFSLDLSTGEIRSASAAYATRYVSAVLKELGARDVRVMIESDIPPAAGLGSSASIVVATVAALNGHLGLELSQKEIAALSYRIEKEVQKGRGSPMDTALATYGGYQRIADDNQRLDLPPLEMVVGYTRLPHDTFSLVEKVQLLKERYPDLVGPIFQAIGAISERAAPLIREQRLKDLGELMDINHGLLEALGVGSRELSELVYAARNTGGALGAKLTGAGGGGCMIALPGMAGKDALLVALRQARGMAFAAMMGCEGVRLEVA
As to the kind of experiment: Inhibition of mcl-derived mevalonate kinase by DMAPP, GPP, FPP or DPM. The following applies: mcl. How it is done:
as §1, §2, §3

Data set [4] deals with Nitrosopumilus maritimus mevalonate kinase (nmr), wild type, SEQ ID NO:9, N-terminal His-tag (Nitrosopumilus maritimus, UniProt A9A427). As to the kind of experiment: Inhibition of nmr-derived mevalonate kinase by DMAPP, GPP, FPP or DPM. How it is done: as §1, §2, §3
The target of data set [5] is Corynebacterium variabile mevalonate kinase (cva), wild type, SEQ ID NO:3, N-terminal His-tag (Corynebacterium variabile, UniProt A0A0X2NLH5). Nature of the data set: Inhibition of cva-derived mevalonate kinase by DMAPP, GPP, FPP or DPM. The procedure:
as §1, §2, §3

Data set [6] has as its system mevalonate kinase. Nature of the data set: Expression analysis and activity confirmation of His-tagged mevalonate kinases from pET-21a(+) and pET-28b(+). As to conditions: His-spinTrap eluate after dialysis, 10 μl enzyme solution. How it is done:
Each obtained plasmid was used for transformation of E. coli BL21(DE3). […] When OD600 reached approximately 0.5, IPTG was added to the solution to final concentration of 1 mM. It was then cultured overnight at 20° C. Harvested cells were suspended in the buffer solution consisting of 50 mM sodium phosphate, 0.3 M NaCl and 20 mM Imidazol. Then the cells were disrupted with an ultrasonic disruptor (TOMY: UD-201, output level=3.5). After centrifugation (20,000×g, 20 min), disrupted cells were adsorbed to His-spinTrap (GE Healthcare). After washing with the same buffer solution, protein was eluted with the buffer solution consisting of 50 mM sodium phosphate, 0.3 M NaCl and 0.5 M imidazole (pH7.5). Eluate was dialyzed overnight at 4° C. with the external solution composed of 20 mM Tris-HCl (pH7.5) and 50 mM NaCl. Then, enzyme activity of each eluate in the internal dialysis solution was measured.
Activity of the internal dialysate (about 0.2 ml each) was measured with the 10 μl of enzyme solution (Table 8). Enzyme expression level was compared on activity basis between pET-21a(+) and pET-28b(+). […] It is inferred that expression level is higher in pET-28b(+). Therefore, purified enzyme expressed in pET-28b(+) was used in the further examinations.
Values were presented by decrease in absorbance per unit time per 10 μl in the enzyme reaction measurement system (dABS/min/10 μl).
(§4) Decrease in absorbance at 340 nm at 30° C. was measured to determine the enzyme activity. JASCO Corporation's spectrophotometer (V-650) was used in this study. Millimolar extinction coefficient of NADH used in this study was 6.22 mM^−1 cm^−1. […] Km value was calculated by Lineweaver-Burk plot.

Data set [7] relates to mevalonate kinase. Nature of the data set: Examination of product inhibition on each mevalonate kinase (absorbance at 386 nm, PMK addition). The following applies: in words; for course of decrease in absorbance at 386 nm until PMK addition: 1 mM mevalonate as substrate. The procedure: When decrease in absorbance stopped, purified PMK was added to measure further decrease in absorbance at 386 nm.
FIG. 18 presents the SDS-PAGE profile of the purified PMK. […] Then, absorbance decreased further and finally absorbance at 386 nm decreased to 0.3 in all reaction systems. Therefore, it is inferred that mevalonate is converted into diphosphomevalonate via phosphomevalonate by adding PMK to each MVK.

Data set [8] deals with mevalonate kinase. Nature of the data set: Measurement of activity and Km value of purified mevalonate kinase (PK/LDH coupled, 340 nm). The following applies: 10 μl enzyme in 1 ml, replicate values; for dABS/min at ATP 0.04 mM / dABS/min at ATP 0.2 mM / dABS/min at ATP 1 mM: potassium mevalonate 5 mM; for dABS/min at mev 0.04 mM: potassium mevalonate 0.04 mM; for dABS/min at mev 0.2 mM: potassium mevalonate 0.2 mM. The procedure: Each obtained plasmid was used for transformation of E. coli BL21(DE3). […] When OD600 reached approximately 0.5, 0.1 mM IPTG (for cva, mma, nmr, and sce) or 1 mM (for mcl and mpd) of IPTG was added, and then the mixture was kept at 20° C. overnight to induce the target protein. Harvested cells were suspended in buffer solution A (50 mM sodium phosphate, 0.3 M NaCl and 20 mM Imidazol), and then the cells were disrupted with an ultrasonic disruptor (TOMY: UD-201). […] After centrifugation (28,000×g, 30 min), the supernatant was adsorbed onto His-Trap HP (GE Healthcare) to elute the target protein by linear concentration gradient of Imidazol (final concentration 0.5 M). Obtained protein was dialyzed by using an external solution composed of 20 mM Tris-HCl (pH 8.0) containing 1 mM DTT and 50 mM NaCl. Dialyzed protein was designated as purified enzyme. Protein quantity was measured with Bio-RAD protein assay kit and BSA standard condition.
as §4
Measured activity of each enzyme (JABS/min) was presented on Table 9 for the calculation of apparent Km value (Km app.) of each enzyme. Table 10 presents Km app., Vmax, molecular weight of the enzyme protein, protein concentration in the enzyme solution and calculated kcat.
Activity was indicated by dABS/min when 10 μl of each enzyme was added to 1 ml of reaction solution.

The test system of data set [9] is mevalonate kinase. As to the kind of experiment: Inhibition of each mevalonate kinase by DMAPP, GPP, FPP or DPM. The procedure: as §2
Respective effect of the added 5 mM DMAPP, 0.1 mM GPP, and 0.1 mM FPP on the activity of each enzyme was measured. […] Contrarily, mcl-derived enzyme was activated by 5 mM DMAPP and its activity increased by 20% from that of the control.
Activity when 10 μl of each enzyme was added to 1 ml of the reaction system was represented by dABS/min
as §3

The mark [10] stands for this setting: Table 11 control without terpenyl diphosphate (methanol added).

Values joined by “and” are separate entries in the source; they are usually repeats but may differ in a detail not shown here. Identical values can stand only once. Counter-ions that a name gives are not always drawn.

Sequence of Corynebacterium variabile mevalonate kinase (cva), wild type, SEQ ID NO:3, N-terminal His-tag (A0A0X2NLH5 entry or part of it): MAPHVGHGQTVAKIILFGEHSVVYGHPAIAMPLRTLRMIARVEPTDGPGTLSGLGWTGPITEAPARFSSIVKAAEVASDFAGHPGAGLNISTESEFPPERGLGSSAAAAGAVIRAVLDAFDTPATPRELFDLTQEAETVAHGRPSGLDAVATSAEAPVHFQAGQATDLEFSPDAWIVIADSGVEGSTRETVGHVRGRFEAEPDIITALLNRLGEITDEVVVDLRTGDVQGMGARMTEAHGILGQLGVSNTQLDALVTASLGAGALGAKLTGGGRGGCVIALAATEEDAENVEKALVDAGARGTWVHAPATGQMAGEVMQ
Sequence of Methanocella paludicola mevalonate kinase (mpd), wild type, SEQ ID NO:1, N-terminal His-tag (D1YZ39 entry or part of it): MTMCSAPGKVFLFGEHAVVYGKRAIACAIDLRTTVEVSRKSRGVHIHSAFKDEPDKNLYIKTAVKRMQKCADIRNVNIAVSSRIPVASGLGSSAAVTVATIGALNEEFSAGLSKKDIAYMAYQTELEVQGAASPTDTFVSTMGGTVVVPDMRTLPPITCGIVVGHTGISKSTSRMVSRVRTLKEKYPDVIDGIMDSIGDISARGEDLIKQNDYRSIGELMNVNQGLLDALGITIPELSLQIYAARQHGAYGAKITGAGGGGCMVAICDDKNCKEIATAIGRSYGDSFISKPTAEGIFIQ

For `CC(C)=CCC/C(C)=C/CC/C(C)=C/COP(=O)(O)OP(=O)(O)O` [FPP, farnesyl pyrophosphate ammonium salt], the “Inhibition by FPP” value is “no other enzymes were inhibited strongly” in data set [1] (0.1 mM FPP); “no other enzymes were inhibited strongly” in [2] (0.1 mM FPP); “no other enzymes were inhibited strongly” in data set [3] (0.1 mM FPP); “no other enzymes were inhibited strongly” in [4] (0.1 mM FPP); “inhibited” in data set [5] (0.1 mM FPP). For the same molecule, the “Enzyme activity with 0.1 mM FPP” value in [1] (0.1 mM FPP, control 0.15734) was found to be 0.1594 dABS/min; in data set [2] (0.1 mM FPP, control 0.21), 0.2059 dABS/min; in [3] (0.1 mM FPP, control 0.1482), 0.1562 dABS/min; in data set [4] (0.1 mM FPP, control 0.2438), 0.224 dABS/min; in [5] (0.1 mM FPP, control 0.08338), 0.04775 dABS/min.
As to `CC(C)=CCC/C(C)=C/COP(=O)(O)OP(=O)(O)O` [GPP, geranyl phyrophosphate ammonium salt], the “Enzyme activity with 0.1 mM GPP” value stood at 0.1589 dABS/min in data set [1] (0.1 mM GPP, control 0.15734); 0.2009 dABS/min in data set [2] (0.1 mM GPP, control 0.21); 0.1538 dABS/min in [3] (0.1 mM GPP, control 0.1482); 0.2427 dABS/min in [4] (0.1 mM GPP, control 0.2438); 0.07532 dABS/min in [5] (0.1 mM GPP, control 0.08338).

B1: nmr: mevalonate kinase derived from Nitrosopumilus maritimus (SEQ ID NO:9), His-tagged purified enzyme (protein, listed as Nitrosopumilus maritimus)
chain: MKSKASAPGKVILFGEHFVVYGVKAILCAINKRIAVTAEKIDERKISIKSNIGHLELEPNKPISEINSPLKPFYYLANKIIQDKNFGIKIDVESEIPLGVGLGSSSACCVAGAAAISNLFENNSKEEILKLAIEAEKTIFQNTSGADCTVCTFGGLMEYDKENGFSKIESEPNFHLVIANSNVEHSTESVVAGVRKFKKNNEAEFSKLCKDESHLIENVLELLKENNIRELGERVIKNQEYLERIGISNAKLREMIQTGQNSSFGAKITGAGGGGCIFALTDESNLENTIKEFKEKNHECFSVKIDFKGLDTF
modifications: His-tag
On to B1, for which, in data set [6], the “enzyme activity, pET21 system (C terminal Tag)” value is 0.137 dABS/min/10 μl and the “enzyme activity, pET28 system (N terminal Tag)” value was found to be 0.247 dABS/min/10 μl. Besides, in [7], the “course of decrease in absorbance at 386 nm until PMK addition” value is “decrease in the rate of reaction associated with the progression of reaction” and the DPM-induced inhibition result is reported as “not observed”. Moreover, in [8], the “dABS/min at ATP 0.04 mM” value is 0.007781 dABS/min and 0.00767 dABS/min and 0.007932 dABS/min; the “dABS/min at ATP 0.2 mM” value is 0.03637 dABS/min and 0.03629 dABS/min and 0.03625 dABS/min; the “dABS/min at ATP 1 mM” value is 0.1089 dABS/min and 0.1084 dABS/min and 0.1085 dABS/min. Further, in data set [8] (ATP 5 mM), the “dABS/min at mev 0.04 mM” value was 0.01691 dABS/min and 0.01687 dABS/min and 0.0168 dABS/min; the “dABS/min at mev 0.2 mM” value is 0.06788 dABS/min and 0.06784 dABS/min and 0.06777 dABS/min. The “dABS/min at mev 1 mM” value in data set [8] (potassium mevalonate 1 mM, ATP 5 mM) was 0.1521 dABS/min and 0.1522 dABS/min and 0.153 dABS/min. The “enzyme activity, Control” value in [9] (setting [10]) stood at 0.2438 dABS/min. In addition, in [9] (Table 12 control without DPM), the “enzyme activity, Control” value stood at 0.2064 dABS/min.

B2: mma: known mevalonate kinase derived from Methanosarcina mazei (SEQ ID NO:12), His-tagged purified enzyme (protein, listed as Methanosarcina mazei)
chain: MVSCSAPGKIYLFGEHAVVYGETAIACAVELRTRVRAELNDSITIQSQIGRTGLDFEKHPYVSAVIEKMRKSIPINGVFLTVDSDIPVGSGLGSSAAVTIASIGALNELFGFGLSLQEIAKLGHEIEIKVQGAASPTDTYVSTFGGVVTIPERRKLKTPDCGIVIGDTGVFSSTKELVANVRQLRESYPDLIEPLMTSIGKISRIGEQLVLSGDYASIGRLMNVNQGLLDALGVNILELSQLIYSARAAGAFGAKITGAGGGGCMVALTAPEKCNQVAEAVAGAGGKVTITKPTEQGLKVD
modifications: His-tag
B2: in [6], the “enzyme activity, pET21 system (C terminal Tag)” value was found to be 0.225 dABS/min/10 μl and the “enzyme activity, pET28 system (N terminal Tag)” value is recorded as 0.231 dABS/min/10 μl. Also, the “course of decrease in absorbance at 386 nm until PMK addition” value in [7] is “almost linear decrease in absorbance”. Moreover, in [8], the “dABS/min at ATP 0.04 mM” value is 0.01326 dABS/min and 0.01358 dABS/min and 0.01398 dABS/min; the “dABS/min at ATP 0.2 mM” value was 0.05835 dABS/min and 0.05848 dABS/min and 0.05859 dABS/min; the “dABS/min at ATP 1 mM” value is 0.1533 dABS/min (2×) and 0.1528 dABS/min. Further, the “dABS/min at mev 0.01 mM” value in data set [8] (potassium mevalonate 0.01 mM, ATP 5 mM) is 0.02921 dABS/min and 0.02805 dABS/min and 0.02788 dABS/min. In data set [8] (ATP 5 mM), the “dABS/min at mev 0.04 mM” value is 0.08012 dABS/min and 0.08006 dABS/min and 0.08009 dABS/min; the “dABS/min at mev 0.2 mM” value was 0.1761 dABS/min and 0.1758 dABS/min and 0.176 dABS/min. Further, the “enzyme activity, Control” value in data set [9] (setting [10]) was 0.21 dABS/min. In addition, in data set [9] (Table 12 control without DPM), the “enzyme activity, Control” value came to 0.1604 dABS/min.
